Measurements published in patent US20140271648A1 (Janssen / Centocor, published 2014).

T1: human IFNαF (human, UniProt P01568 24-189)
T1 chain: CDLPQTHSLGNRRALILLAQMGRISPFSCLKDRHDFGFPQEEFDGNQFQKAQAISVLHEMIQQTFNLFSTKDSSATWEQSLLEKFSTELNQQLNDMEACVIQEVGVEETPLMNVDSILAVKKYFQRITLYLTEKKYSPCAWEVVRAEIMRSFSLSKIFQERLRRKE

T2: human IFNαD (human, UniProt A0A087WWS6 25-190)
T2 construct: also called Alpha D (alpha 1); IFNα1
T2 chain: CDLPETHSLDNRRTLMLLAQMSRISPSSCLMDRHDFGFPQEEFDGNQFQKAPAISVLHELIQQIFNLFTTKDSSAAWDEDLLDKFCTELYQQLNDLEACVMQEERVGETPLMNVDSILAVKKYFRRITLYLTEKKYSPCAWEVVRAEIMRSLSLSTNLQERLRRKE


What was measured:
human IFNαC [1] = target: T3, human IFNαC (human, UniProt P01566 24-189); assay: cell-based or functional assay
human IFNαJ1 [2] = target: T4, human IFNαJ1 (human, UniProt P01567 24-189); assay: cell-based or functional assay
human IFNω [3] = target: T5, human IFNω (human, UniProt P05000 24-195); assay: cell-based or functional assay
human IFNαH2 [4] = target: T6, human IFNαH2 (human, UniProt P01570 24-189); assay: cell-based or functional assay
human IFNαF [5] = target: T1, human IFNαF; assay: cell-based or functional assay
human IFNαK [6] = target: T7, human IFNαK (human, UniProt P05013 24-189); assay: cell-based or functional assay
human IFNαG [7] = target: T8, human IFNαG (human, UniProt P01569 24-189); assay: cell-based or functional assay
human IFNαWA [8] = target: T9, human IFNαWA (human, UniProt P05015 24-189); assay: cell-based or functional assay
human IFNαD = target: T2, human IFNαD; assay: SPR (ProteOn); mAb captured on anti-human Fc, IFN as analyte
Method: (§1) Binding affinities of the antibodies were performed using SPR technology with ProteOn (Bio-Rad Hercules, Calif.). Goat anti-human Fc antibodies (manufacture) were amine-coupled to GLC chips (Bio-Rad Hercules, Calif.) using standard NHS/EDC chemistry as manufacture recommended. The anti-IFN mAbs were then loaded on the antibody coupled chip for 2 minutes at the flow rate of 30 μl/min. […] The chips were generated with 100 mM phosphoric acid in each direction between running different antigens. Data analysis was performed using ProteOn manager (Bio-Rad Hercules, Calif.). The sensorgrams were grouped by mAbs. After applying alignment and reference correction (using either interspot or blank channel referencing), the SPR data were fit globally to Langmuir model for kinetic rate constants (KD=koff/kₒₙ, where KD=equilibrium dissociation constant, kₒₙ=association rate constant, and koff=dissociation rate constant).

human IFNαC [9] = target: T3, human IFNαC; assay: as above
Method: as §1

human IFNαJ1 [10] = target: T4, human IFNαJ1; assay: as above
Method: as §1

human IFNω [11] = target: T5, human IFNω; assay: as above
Method: as §1

human IFNαH2 [12] = target: T6, human IFNαH2; assay: as above
Method: as §1

human IFNαF [13] = target: T1, human IFNαF; assay: as above
Method: as §1

human IFNαK [14] = target: T7, human IFNαK; assay: as above
Method: as §1

human IFNαG [15] = target: T8, human IFNαG; assay: as above
Method: as §1

human IFNαWA [16] = target: T9, human IFNαWA; assay: as above
Method: as §1

human IFNω T80E variant = target: T10, human IFNω T80E variant (human, UniProt P05000 24-195); assay: complex formed, purified by size exclusion and co-crystallized
T10 construct: Expressed in HEK293F cells; used for the crystal structures; In the Fab357 crystal only residues R22-P39 and L118-L154 were seen (proteolytic cleavage during crystallization); also called IFN-omega (T80E)

human IFNβ = target: T11, human IFNβ (human, UniProt P01574 22-187); assay: SPR (ProteOn); mAb captured on anti-human Fc, IFN as analyte
T11 construct: also called interferon-β
T11 sequence (P01574 22-187 limits assumed): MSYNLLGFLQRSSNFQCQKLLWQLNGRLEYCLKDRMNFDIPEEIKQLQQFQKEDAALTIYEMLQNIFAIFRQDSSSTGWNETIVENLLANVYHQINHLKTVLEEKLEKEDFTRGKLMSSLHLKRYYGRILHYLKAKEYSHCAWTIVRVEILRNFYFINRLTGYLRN
Method: as §1

T5 sequence (P05000 24-195 limits assumed): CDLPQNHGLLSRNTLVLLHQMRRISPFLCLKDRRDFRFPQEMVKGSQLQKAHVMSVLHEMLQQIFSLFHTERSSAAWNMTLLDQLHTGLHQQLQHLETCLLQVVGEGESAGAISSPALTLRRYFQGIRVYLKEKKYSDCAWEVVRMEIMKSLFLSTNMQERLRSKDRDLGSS
T4 sequence (P01567 24-189): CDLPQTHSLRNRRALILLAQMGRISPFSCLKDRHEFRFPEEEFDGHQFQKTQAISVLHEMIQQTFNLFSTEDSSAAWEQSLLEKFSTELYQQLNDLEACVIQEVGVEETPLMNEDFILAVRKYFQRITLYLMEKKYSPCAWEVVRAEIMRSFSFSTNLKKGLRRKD
T6 sequence (P01570 24-189): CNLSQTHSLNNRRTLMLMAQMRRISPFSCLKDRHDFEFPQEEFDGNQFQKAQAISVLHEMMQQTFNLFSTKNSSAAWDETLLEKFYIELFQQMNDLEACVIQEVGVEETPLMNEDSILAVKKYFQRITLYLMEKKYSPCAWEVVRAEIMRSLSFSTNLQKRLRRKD
T3 sequence (P01566 24-189): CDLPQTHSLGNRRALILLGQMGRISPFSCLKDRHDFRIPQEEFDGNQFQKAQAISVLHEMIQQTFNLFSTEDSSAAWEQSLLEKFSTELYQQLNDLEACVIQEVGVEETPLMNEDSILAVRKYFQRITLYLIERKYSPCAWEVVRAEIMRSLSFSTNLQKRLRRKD
T8 sequence (P01569 24-189): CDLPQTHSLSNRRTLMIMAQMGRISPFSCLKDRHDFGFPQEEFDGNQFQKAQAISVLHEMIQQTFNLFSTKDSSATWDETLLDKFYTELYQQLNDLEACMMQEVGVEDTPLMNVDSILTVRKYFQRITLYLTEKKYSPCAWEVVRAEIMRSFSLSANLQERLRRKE
T7 sequence (P05013 24-189): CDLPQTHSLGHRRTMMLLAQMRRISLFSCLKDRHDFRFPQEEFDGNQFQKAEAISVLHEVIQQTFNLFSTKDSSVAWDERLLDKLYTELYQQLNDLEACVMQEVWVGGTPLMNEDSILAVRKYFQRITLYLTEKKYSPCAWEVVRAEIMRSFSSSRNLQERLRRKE
T10 sequence (P05000 24-195 T103E limits assumed): as the sequence (P05000 24-195 limits assumed) above, with T80E counted along it

Binder | IC50, ISRE reporter gene assay (human IFNαC [1]) [nM] | IC50, ISRE reporter gene assay (human IFNαJ1 [2]) [nM] | IC50, ISRE reporter gene assay (human IFNω [3]) [nM] | IC50, ISRE reporter gene assay (human IFNαH2 [4]) [nM] | IC50, ISRE reporter gene assay (human IFNαF [5]) [nM] | IC50, ISRE reporter gene assay (human IFNαG [7]) [nM] | binding result (human IFNαD) | Kd (human IFNαC [9]) [nM] | Kd (human IFNαJ1 [10]) [nM] | Kd (human IFNω [11]) [nM] | Kd (human IFNαH2 [12]) [nM] | Kd (human IFNαF [13]) [nM] | Kd (human IFNαG [15]) [nM] | Kd (human IFNαWA [16]) [nM] | binding result (human IFNω T80E variant) | binding result (human IFNβ) | also measured
IFWM43 (antibody, V domains shown, Fab from a pIX phage display library, converted to human IgG1 mAb; also called anti IFNα/ω mAb M43) VH: QVQLVQSGAEVKKPGSSVKVSCKASGGTFSSYAISWVRQAPGQGLEWMGGIIPIFGTANYAQKFQGRVTITADESTSTAYMELSSLRSEDTAVYYCARDSWGSYYAALDYWGQGTLVTVSS VL: not shown | 14.9 | 1 | 18.5 | 51 | 3.7 | 5.3 | no binding (tested: antigen up to 100 nM) | 0.4 | 0.4 | 0.3 | 0.6 | 0.9 | 0.6 | 0.6 | – | – | IC50, ISRE reporter gene assay (human IFNαK [6]): 10.4 nM; IC50, ISRE reporter gene assay (human IFNαWA [8]): 9.2 nM; Kd (human IFNαK [14]): 0.3 nM
FabM43 (Fab, V domains shown, His-tagged Fab, IgG1/κ isotype, expressed in HEK293F cells; also called Fab of IFWM43; His-tagged FabM43) VH: QVQLVQSGAEVKKPGSSVKVSCKASGGTFSSYAISWVRQAPGQGLEWMGGIIPIFGTANYAQKFQGRVTITADESTSTAYMELSSLRSEDTAVYYCARDSWGSYYAALDYWGQGTLVTVSS VL: not shown | – | – | – | – | – | – | – | – | – | – | – | – | – | – | binds | – | –
IFWM88 (antibody, V domains shown, Fab from a pIX phage display library, converted to human IgG1 mAb) VH: QVQLVQSGAEVKKPGSSVKVSCKASGGTFSSYAISWVRQAPGQGLEWMGGIIPIFGTANYAQKFQGRVTITADESTSTAYMELSSLRSEDTAVYYCARHLEYAFPDKFDYWGQGTLVTVSS VL: not shown | 136 | 21.9 | – | – | 24.6 | 23.4 | no binding (tested: antigen up to 100 nM) | 3.2 | 4.5 | 53 | 5.5 | 1 | 0.8 | 97.3 | – | no binding (tested: antigen up to 100 nM) | –
C2595 (antibody, V domains shown) VH: EVQLQQSGGDLVKPGGSLKLSCAASGFTFSSYGMSWVRQTPDKRLDWVSIITSGGSYTYYPDSVKGRFTISRDNAKNTLYLQMSSLKSEDTAMYYCARHAEGGGNYDYAMDYWGQGTSVTVSS VL: DIVMTQAAFSNPVTLGTSASISCRSSKSLLHSNGITYLYWYLQKPGQSPQLLIYQMSNLASGVPDRFSSSGSGIDFTLRISRVEAEDVGAYYCAQNLELPFTFGSGTKLEIK | 1.5 | 1.4 | 0.9 | 20.3 | 2.6 | 2.6 | – | – | – | – | – | – | – | – | – | – | –
Fab357 (Fab, V domains shown, also called Fab of C2595) VH: EVQLQQSGGDLVKPGGSLKLSCAASGFTFSSYGMSWVRQTPDKRLDWVSIITSGGSYTYYPDSVKGRFTISRDNAKNTLYLQMSSLKSEDTAMYYCARHAEGGGNYDYAMDYWGQGTSVTVSS VL: DIVMTQAAFSNPVTLGTSASISCRSSKSLLHSNGITYLYWYLQKPGQSPQLLIYQMSNLASGVPDRFSSSGSGIDFTLRISRVEAEDVGAYYCAQNLELPFTFGSGTKLEIK | – | – | – | – | – | – | – | – | – | – | – | – | – | – | binds | – | –
M3239 (antibody, human IgG1, V domains shown) VH: EVQLQQSGGDLVKPGGSLKLSCAASGFTFSSYGMSWVRQTPDKRLDWVSIITSGGSYTYYPDSVKGRFTISRDNAKNTLYLQMSSLKSEDTAMYYCARHAEGGGNYDYAMDYWGQGTSVTVSS VL: DIVMTQAAFSNPVTLGTSASISCRSSKSLLHSNGITYLYWYLQKPGQSPQLLIYQMSNLASGVPDRFSSSGSGIDFTLRISRVEAEDVGAYYCAQNLELPFTFGSGTKLEIK | – | – | – | – | – | – | no binding (tested: antigen up to 100 nM) | 1.3 | 4.3 | 4.5 | 61.6 | 15.1 | 10.3 | – | – | no binding (tested: antigen up to 100 nM) | binding result (human IFNαK [14]): no binding (tested: antigen up to 100 nM); binding result (human IFNαWA [16]): no binding (tested: antigen up to 100 nM)
